Laboratory results as given in patent US8247535B2, “Directed evolution of GRG31 EPSP synthase enzyme” (Athenix Corp., priority 2008, dated 2012).
Where a chain is given by its changes, count along the chain named. Numbers in names are those of the source.

B1: 6b2: GRG31 variant N95→S, A206→V, SEQ ID NO:18 (protein)
chain: MNQQVITLTHPSKKIQGTVQLTGSKSESNRALIIQSLSKGQVEIANLSEAADTVTLNRVLQIASDPKPGFNTIDIGPAGTAMRFLTAYLNLVKGSFILTGTERMQQRPIGILVDAMKEIGADIHYDKKVGYPPLKIEGGLFQEKDRVKIKGNISSQYISALLLIAPALKKGLTLEIEGELTSRPYVSMTLDMLKSVGIQHEWKNNVIKIAPQAFEKQTIYVEPDWSAASYWYAIAALADANASIVLPGLRKNSLQGDIAIISIMEHFGVQSSFESDGLHLNKKVIGSDVSLFNFKECPDLAQTVVVVAAALKRDVSFTGLETLKIKETDRIAALQKEIAKFGAELIEDGDTYHLKTAQVYQPEEVTFDTYEDHRMAMAFAPLALVFDQIKIAEPQVVEKSYPDFWNHLQAQAFVIE
modifications: GRG31 variant (clone 6b2)
B2: 6e7: GRG31 variant E215→K, SEQ ID NO:19 (protein)
chain: B1 chain with S95N, V206A, E215K
modifications: GRG31 variant (clone 6e7)
B3: Triple EK: GRG31 variant N95S A206V E215K, SEQ ID NO:20 (protein)
chain: B1 chain with E215K
modifications: GRG31 variant (triple EK)
B4: GRG36(ace7): GRG36 protein variant, SEQ ID NO:27, encoded by syngrg36(ace7) (protein)
chain: MKNQNFDAKARSPWTPLKGVNKISVSPSKGRINGTVTIPGSKSLTNRALIISSLASGKSKVQGILKSDDSFWCLDSLKKLGVNVKIQGDIAFIEGNGGKWESGDLYIGAAGTIARFLPGALAVSGTGIWELEASKSMSKRPISPQVDALKELGAEITYLSDQGYYPLLVKGKQLNGGEVELSGRISSQFISGLLIASPYLNDPIKINIKDHIVQHSYVLLTLELMKKFGAKVKYDSSLKEIVVYPSKYTPQDINLEADVSTACYFLALAAVTNGKVQIDNLTYETKQPDIKMVDILERMGCKVTRGSSFIEIEGVSQLKGGFEISMREMSDQVLTLAAIAPFADEPITIKDVEHIRHHESNRISVLVDSLSRLGIIVEEFKDGLKVYPGNPKATLLDTHDDHRVAMALSLIGSRVEGIQINDPGCVSKTCPQYFELLEKLGLNIIKH
modifications: GRG36 variant (GRG36(ace7))
B5: GRG36(ace8): GRG36 protein variant, SEQ ID NO:28, encoded by syngrg36(ace8) (protein)
chain: B4 chain with I90T, Q145L, K350T, L410M
modifications: GRG36 variant (GRG36(ace8))
B6: GRG31: native (wild-type) GRG31 EPSP synthase, SEQ ID NO:2 (protein)
chain: B1 chain with S95N, V206A
B7: GRG36: wild-type GRG36 EPSP synthase, SEQ ID NO:4 (protein)
chain: B4 chain with I90T, Q145L
modifications: derived from organism isolated from soil

Assays:
[1] = system: GRG31 EPSP synthase; assay: Thermostability of purified GRG31 variant proteins (4 hrs at 37° C.); assay type: biochemical; settings: in words
Description: GRG31 variants L3P2b11, L3P2c11 and L4e11, and L5e3 were characterized by enzymatic assays as described herein, and compared to the native GRG31 enzyme. For each enzyme the apparent Km (Km(app)) was determined at each of several glyphosate concentrations, and a plot of Km(app) vs. glyphosate concentration was used to calculate the Ki for each enzyme. […]
Three variants (6b2, 6e7, and the triple EK (N95S A206V E215K; SEQ ID NO:20)) were grown, their proteins purified, and the thermostability of the proteins analyzed in more detail.

[2] = molecular target: GRG31 EPSP synthase; assay: Kinetic analysis of GRG31 variants (Ki for glyphosate, Km for PEP, Vmax); assay type: biochemical; design: Vmax: unit not given here; settings: for Ki: Ki for glyphosate, calculated from plot of Km(app) vs. glyphosate concentration; for Km: Km for PEP; for Vmax: unit not given
Description: GRG31 variants L3P2b11, L3P2c11 and L4e11, and L5e3 were characterized by enzymatic assays as described herein, and compared to the native GRG31 enzyme. For each enzyme the apparent Km (Km(app)) was determined at each of several glyphosate concentrations, and a plot of Km(app) vs. glyphosate concentration was used to calculate the Ki for each enzyme. The thermostability for each enzyme was assessed by incubating the enzyme at 37° C. for 16 hours, and then quantifying the enzymatic activity remaining (as Vmax) vs. control enzyme that was incubated at 4° C.

[3] = system: GRG31 EPSP synthase; assay: Thermostability of extracts of GRG31 point mutants at 37° C.; assay type: biochemical; settings: for thermostability of extracts of error prone PCR clones: extracts of 95 clones, in words
Description: To improve the thermostability of GRG31, error prone PCR mutagenesis of GRG31 was performed. Forty-five thousand (45,000) clones were plated onto 50 mM glyphosate, and ninety-five (95) clones were picked.
To further investigate the contributions of various substitutions in these positions, several point mutations were generated at positions corresponding to amino acid positions 95, 206, and 215 of GRG31. Extracts of point mutants were tested for thermostability at 37° C.: […]

[4] = system: GRG36; assay: Kinetic constants of GRG36 enzymes (Km, Ki, Vmax); assay type: biochemical; settings: for Km: substrate phosphoenolpyruvate; for Ki: glyphosate, (−)x-intercept of Kobs vs. glyphosate concentration
Description: The syngrg36 DNA library was transformed into E. coli strain BL21*DE3 star (Invitrogen) for induction of protein expression. Following transformation, individual colonies were plated on 1×M63 medium containing 25 mM glyphosate to select for clones that had retained enzymatic activity and growth tolerance. Individual colonies were picked and arrayed into 384-well plates to create a mutagenized library for enzymatic activity screening. Two 384-well plates were created in this manner. Enzymatic activity screening was carried out as follows. Library clones were pinned into 96-well blocks containing LB medium and were grown to A600=0.6. IPTG was then added (0.5 mM) and the blocks were incubated overnight at 20° C. to induce protein expression. Next, protein extracts were prepared from individual cultures using POPCULTURE® reagent (Novagen) and the enzymatic activity was measured as disclosed in U.S. patent application Ser. No. 11/651,752, filed Jan. 10, 2007, herein incorporated by reference in its entirety. […] These 6 were selected for further characterization.
Additionally, enzymatic assays were carried out to calculate the kinetic constants for substrate binding affinity (Km), glyphosate binding (Ki) and enzymatic rate (Vmax). Briefly, each enzyme was titrated with the substrate phosphoenolpyruvate and the linear enzymatic rate was plotted versus the substrate concentration. This plot was fit to the Michaelis-Menton equation to calculate the substrate concentration that produced one-half of the maximal rate (Km), and the maximal rate obtained at saturating substrate was divided by the enzyme concentration to yield Vmax. Next, additional substrate titrations were carried out at various glyphosate concentrations, and the apparent binding constant at each glyphosate concentration (Kobs) was plotted against the glyphosate concentration to yield a straight line. The Ki was measured as (−)x-intercept.

[5] = system: GRG36; settings: for fold higher thermostability at 37° C. than wild-type GRG36: relative to wild-type GRG36
Description: Following induction, each GRG36 protein variant was purified by affinity chromatography to a cobalt resin (Novagen). The purified proteins were tested for enzymatic activity following heating for 0, 4 and 6 hours at 37° C.

[6] = system: BL21*DE3 cells; assay: Glyphosate growth screen on agar plates; assay type: cell-based, E. coli; settings: 1×M63 minimal medium; 0.05 mM IPTG; expression construct pAX1945
Excerpt: A glyphosate growth screen was developed. […] Library 1 was cloned into pAX1945 between the MfeI and AlwN1 restriction sites.
Clone pAX3625 contains a grg31 variant having an in-frame stop codon that disrupts the GRG31 open reading frame.

[7] = system: GRG31 EPSP synthase; assay type: biochemical
Description: The thermostability of several variants of GRG31 was analyzed by measuring survival of activity at 37° C.

[8] = extracts of point mutants, Table 8
[9] = extracts, separate experiment, Table 9

Molecule | thermostability compared to wild-type GRG31 [1] | Ki [2] | Km [2] | improvement in Km for PEP relative to GRG31 ([2]; relative to GRG31, in words) | Vmax [2] | Vmax [4] | Km [4] | Half-life at 37° C. [5] | further results
B1 | increased thermostability | 92 µM | 6.5 µM | improved (lower) | 34 | – | – | – | thermostability of extracts of error prone PCR clones [3]: increased thermostability; Percent of Wt GRG31 activity (4 hrs at 37° C.) [3, 8]: 228%; Percent of Wt GRG31 activity (4 hrs at 37° C.) [3, 9]: 139%
B2 | increased thermostability | 111 µM | 3.4 µM | improved (lower) | 62 | – | – | – | Vmax improvement over GRG31 ([2]; relative to GRG31): 2 fold; Vmax relative to GRG31 ([2]; relative to GRG31, in words): improved; thermostability of extracts of error prone PCR clones [3]: increased thermostability; Percent of Wt GRG31 activity (4 hrs at 37° C.) [3, 8]: 213%; Percent of Wt GRG31 activity (4 hrs at 37° C.) [3, 9]: 152%
B3 | increased thermostability | 48.2 µM | 7.2 µM | improved (lower) | 33 | – | – | – | –
B4 | – | – | – | – | – | 1.8 nmol/min/µg | 9.8 µM | 18.8 h | activity at 1 mM glyphosate compared with GRG36 ([4]; 1 mM glyphosate): very similar activity; fold higher thermostability at 37° C. than wild-type GRG36 [5]: 7.5 fold
B5 | – | – | – | – | – | 6.8 nmol/min/µg | 11 µM | 7.3 h | Ki [4]: 435 µM; fold higher thermostability at 37° C. than wild-type GRG36 [5]: 2.5 fold
B6 | – | 73 µM | 23 µM | – | 29.3 | – | – | – | glyphosate concentration of agar plates on which cells grow [6]: up to 50 mM; t1/2 at 37° C. [7]: 2.7 h
B7 | – | – | – | – | – | 8 nmol/min/µg | 6.3 µM | 2.5 h | Ki [4]: 421 µM
